“Also recorded” adds a separate entry of the source.

This is an account of results in patent publication US10444224B2, “Method for RNA detection and quantification” (Cornell University, priority 2011, dated 2019).

In series [1] the test system is endogenous SAM levels in living E. coli cells. Briefly: Live cell imaging of SAM accumulation with the SAM sensor. It is filed as cell-based. As to conditions: 50 μg/ml methionine plus inhibitor (25 μM adenosine periodate or 2.5 μM MT-DADMe-ImmA). As to the method: Expression of the SAM aptamer and intracellular imaging was performed as described above for the ADP sensor: BL21-A Star E. coli cells (Invitrogen) were transformed with 40 ng of plasmid DNA expressing the tRNA-sensor chimeras in pET28c under the control of a T7 promoter. Cells were plated, grown overnight and single colonies were picked for inoculation in LB-Kan. At OD600=0.4, 1 mM of IPTG was added to the culture and shaking was continued at 37° C. for more 2 hours. 100 μL of culture was then removed, spun down to pellet the culture, and resuspended in 2 mL of pH 6.0 M9 minimal media. A 200 μl aliquot of resuspended culture was then plated on PLL-coated 24-well glass-bottom dishes (MatTek) and incubated for 45 minutes at 37° C. Adherent cells were washed twice and then incubated with 200 μM DFHBI in pH 6.0 M9 minimal media for 2 hours at 37° C. Cells were then treated with methionine alone or methionine with inhibitors by adding 2 μl of a 100× stock of the compound to a final concentration of 50 μg/ml for L-methionine, 25 μM for adenosine periodate, and 2.5 μM for MT-DADMe-ImmA. Live fluorescence images were taken with a CoolSnap HQ2 CCD camera through a 60× oil objective mounted on a Nikon TE2000 microscope and analyzed with the NIS-Elements software. The filter set used was a sputter coated filter cube with excitation filter 470/40, dichroic mirror 495 (long pass) and emission filter 525/50 (Chroma Technology).
Cells transformed with SAM sensors were grown overnight in LB-Kan. Cultures were then diluted to OD600=0.1 in 200 mL LB-Kan and grown to OD600=0.4. Cells were then induced for 2 hours with 1 mM IPTG at 37° C. with constant shaking. The entire culture was centrifuged for 5 min at 1,000×g, pellets were resuspended and washed once with M9 media and then resuspended in […] of M9 media containing 200 μM DFHBI and divided into two samples. Methionine (50 μg/ml) or vehicle was then added to either sample and cultures were incubated between 32-37° C. 25 ml aliquots were removed from methionine- and vehicle-treated sample at each time point, centrifuged for 5 min at 1,000×g, and flash frozen in liquid nitrogen. Cells were thawed on ice and lysed by resuspending the pellet in 300 μl of cold 4% perchloric acid. Insoluble material was then pelleted by spinning at 1,000×g for 5 min and the supernatant was transferred to a dialysis spin column with a 10,000 molecular weight cut off (Amicon) and spun at 10,000×g for 10 min at 4° C. A portion of the flow through (50 μl) was then injected on a Zorbax C8 column (Agilent) on an Agilent 1100 HPLC. Samples were loaded and eluted for 15 min with an aqueous buffer containing 3.6% acetonitrile, 40 mM ammonium phosphate, and 5 mM sodium 1-heptanesulfonate which was brought to pH 5.0 with hydrochloric acid. After each sample was eluted, the column was washed with a gradient of 3.6-25% acetonitrile for 30 min prior to the next samples being injected. SAM standards were used to calibrate SAM levels measured using this assay.
Population analysis was carried out using NIS-Elements software. Individual cells in a captured field were manually traced as Region of Interests (ROIs) and tracked through the different time points of image capture. Fluorescence intensity was then calculated by dividing the total fluorescence by the area for each ROI, which gives the mean intensity per unit area. Fold increase in fluorescence over time is calculated as the ratio of mean intensity at a desired time point and at time zero. Values in fold increase in fluorescence over time are plotted as frequency distributions or further used in statistical analyses.

A short description of series [2]: Relative fluorescence of Spinach derivatives compared to Spinach. It counts as biochemical. The conditions noted are these: same concentration of DFHBI in all samples. The text has this: Further modifications to Spinach were made in the same manner as described in Example 3, supra. These included modifications to the central loop, the stem formed between 5′ and 3′ ends, as well as stem-loops 1, 2, and 3. FIG. 17 illustrates the RNA sequences and secondary structures of Spinach (SEQ ID NO: 10), and five derivatives thereof, which are designated Spinach-2 (SEQ ID NO: 12), Spinach-4 (SEQ ID NO: 13), Spinach-6 (SEQ ID NO: 14), Spinach-7 (SEQ ID NO: 15), and Spinach-13 (SEQ ID NO: 11). RNA structure is shown as predicted by Mfold web-based software (Zuker, “Mfold Web Server for Nucleic Acid Folding and Hybridization Prediction,” Nucl. Acids Res. 31(13): 3406-3415 (2003), which is hereby incorporated by reference in its entirety). Substitutions present in the derivatives, relative to Spinach, are shown with a box formed around the base.
FIG. 18 is a graph illustrating the relative fluorescence of the Spinach derivatives compared to Spinach. In all samples shown, the same concentration of DFHBI, the Spinach-binding fluorophore, was included. […] In contrast, modifications to the 5′ and 3′ stem formation, the central loop, and stem-loop 2 were either tolerated or led to much improved fluorescence.

The nature of series [3]: Emission and excitation of aptamer-DFHO complexes. It is filed as physicochemical. As to conditions: aptamer with DFHO.
Series [4] in a line: Emission and excitation of aptamer-MFHO complexes. It is filed as physicochemical. As to conditions: aptamer with MFHO.
Series [5] is described as follows: Emission and excitation of aptamer-DFAME complexes. The conditions noted are these: aptamer with DFAME. It is filed as physicochemical.
Series [6] is described as follows: Spinach-based RNA sensor fluorescence in response to GTP. It counts as biochemical.
Method: Dose-response curves for each sensor in response to the target metabolite were determined by measuring the increase in fluorescence as a function of increasing target concentration in the presence of a fixed concentration of RNA sensor (10-50 nM) and a fixed concentration of fluorophore (10 μM). Curves were determined using a nonlinear regression analysis in Prism software and matched by least squares fitting to a standard dose-response model for 1:1 complexation.
The optimal sensors were chosen based on their low fluorescence in the absence of metabolite and the relative increase in fluorescence upon binding to the metabolite.
[7] abbreviates: 0.1 μM RNA, 10 μM DFHBI, 1 mM competing molecule.

On to `CSC[C@H]1CN(Cc2c[nH]c3c(N)ncnc23)C[C@@H]1O` [MT-DADMe-ImmA, MT-DADMe-Immucillin-A], for which the “effect on average SAM levels / accumulation versus vehicle” value was “large decrease in the average accumulation of SAM” in series [1] and “substantial reduction in average SAM accumulation levels; also recorded: much greater reduction in average SAM accumulation levels” in series [1] (listed as Mt-DADMe-ImmA). The results for the “effect on inter-cell variability in SAM levels versus vehicle” value in series [1] and in series [1] (listed as Mt-DADMe-ImmA) were “retained considerable variability in total SAM levels” and “higher variability in SAM levels; also recorded: increased the variability in SAM levels”, respectively.

B1: Spinach-7: derivative of Spinach (nucleic acid)
chain: GACGCGACCGAAUGAAAUGGUGAAGGACGGGUCCAGCCGGCUGCUUCGGCAGCCGGCUUGUUGAGUAGAGUGUGAGCUCCGUAACUGGUCGCGUC
modifications: listed as RNA, chemistry not given here
With B1, in series [2], the “relative fluorescence compared to Spinach” value (“relative fluorescence” below) is given as “enhanced fluorescence”.

B2: Spinach-2: derivative of Spinach (nucleic acid)
chain: GACGCGACCGAAUGAAAUGGUGAAGGACGGGUCCAGGUGUGGCUGCUUCGGCAGUGCAGCUUGUUGAGUAGAGUGUGAGCUCCGUAACUGGUCGCGUC
modifications: listed as RNA, chemistry not given here
B2: the “relative fluorescence” value in series [2] is recorded as “comparable fluorescence”.

B3: SEQ ID NO: 54: RNA aptamer listed for fluorophore DFHO (nucleic acid)
chain: GGGAGACGCAACUGAAUGAAGCGAGGAAGGAGGUCUGAGGAGGUCACUGCUUCGACAGUGGGGCGUUUUCCCUGGGGGUGUUGAUCCGUAACUAGUCGCGUCAC
modifications: listed as RNA, chemistry not given here
Take B3: in series [3], the Em entry was “Em = 545 nm” and the Ex entry was “Ex = 500 nm”.

B4: SEQ ID NO: 55: RNA aptamer listed for fluorophore MFHO (nucleic acid)
chain: GGGAGACGCAACUGAAUGAAGCGAGGAAGGAGGUCUGAGGAGGUCACUGCUUCGACAGUGGGGCGUUUUCCCUGGGGGUGUUGAUCCGUAACUAGUCGCGUCAC
modifications: listed as RNA, chemistry not given here
As to B4, in series [4], the Em result is “Em = 430 nm” and the Ex result is “Ex = 580 nm”.

B5: SEQ ID NO: 58: RNA aptamer listed for fluorophore DFAME (nucleic acid)
chain: GGGAGACGCAACUGAAUGAAGCCUCCGUGCGACAUCAUGCGCGCGACUGCUUCGGCAGAGGUGGGUGGUGUGGAGGAGUAUCUGUCCGUAACUAGUCGCGUCAC
modifications: listed as RNA, further chemistry not given here
As to B5, in series [5], the Em entry is on record as “Em = 610 nm” and the Ex result is “Ex = 510 nm”.

B6: SEQ ID NO: 53: RNA aptamer listed for fluorophore DFHO (nucleic acid)
chain: GGGAGACGCAACUGAAUGAAAGACCUGACGAGGGUGAAGCGGUUGUCUGCUUCGGCAGCAUUGAAAGGGUGGGGUGUAGGAUGGUCCGUAACUAGUCGCGUCAC
modifications: listed as RNA, chemistry not given here
With B6, in series [3], the Em result is on record as “Em = 560 nm” and the Ex result is “Ex = 520 nm”.

B7: SEQ ID NO: 57: RNA aptamer listed for fluorophore DFAME (nucleic acid)
chain: GGGAGACGCAACUGAAUGAAAGACCUGACGAGGGUGAAGCGGUUGUCUGCUUCGGCAGCAUUGAAAGGGUGGGGUGUAGGAUGGUCCGUAACUAGUCGCGUCAC
modifications: listed as RNA, further chemistry not given here
As for B7, in series [5], the Em result is listed as “Em = 570 nm” and the Ex entry was “Ex = 620 nm”.

B8: Spinach-6: derivative of Spinach (nucleic acid)
chain: GACGCGACCGAAUGAAAUGGUGAAGGACGGGUCCAGGUGUGGCUGCUUCGGCAGUGCAGCUUGUUGCGUCGAGUGUGAGCUCGACGUAACUGGUCGCGUC
modifications: listed as RNA, chemistry not given here
Turning to B8, the “relative fluorescence” value in series [2] is “greatly reduced fluorescence”.

B9: GTP sensor: Spinach-based turn-on RNA sensor for GTP (nucleic acid)
chain: GACGCGACUGAAUGAAAUGGUGAAGGACGGGUCCAGCAGAAGAGCACGUAUACGCAAGCUUGUUGAGUAGAGUGUGAGCUCCGUAACUAGUCGCGUC
modifications: listed as RNA, chemistry not given here
What is called EC50 is the concentration that produces a half-maximal response. For the molecule B9, the “increase in fluorescence in the presence of GTP” value in series [6] (0.1 μM RNA, 10 μM DFHBI, 1 mM GTP, versus no GTP) is 15 fold. Also, in series [6] (setting [7]), the “molecular discrimination: ATP” value is given as “Only baseline fluorescence”; the “molecular discrimination: GMP” value is recorded as “exhibits fluorescence, although to a lesser extent; also recorded: moderate preference for GTP over GMP”; the “molecular discrimination: cGMP and guanosine” value was “minimal fluorescence; also recorded: tenfold less fluorescence”. Also, the EC50 in series [6] (predicted by curve fitting, read-out: half-maximal fluorescence (EC50), GTP) is 7.7 mM.

B10: SEQ ID NO: 51: RNA aptamer listed for fluorophore DFHO (nucleic acid)
chain: GGGAGACGCAACUGAAUGAAGUUGGCCCAUGAUAGAAAGCAGGGUGCUGCUUCGGCAGUUGUCGGAGGGUGGGGGGAUUGACUAUCCGUAACUAGUCGCGUCAC
modifications: listed as RNA, chemistry not given here
For B10, in series [3], the Em entry is on record as “Em = 550 nm” and the Ex entry is “Ex = 480 nm”.

B11: Spinach-13: derivative of Spinach (nucleic acid)
chain: GACGCGACCUAUGAAAUGGUGAAGGGACGGGUCCCAGCGGCUGCUUCGGCAGCCGCUGUUGAGUAGAGUGUGAGCUCCGUAACUGGUCGCGUC
modifications: listed as RNA, chemistry not given here
Consider B11, for which the “relative fluorescence” value in series [2] is listed as “greatly reduced fluorescence”.

B12: SEQ ID NO: 56: RNA aptamer listed for fluorophore MFHO (nucleic acid)
chain: GGGAGACGCAACUGAAUGAAUGAGUAUGAUGCACGGUUAAAAUCCACUGCUUCGGCAGGAGUUGCGUUAGGAGGGUCGGGAGUCUCCGUAACUAGUCGCGUCAC
modifications: listed as RNA, chemistry not given here
In the case of B12, in series [4], the Em result was “Em = 570 nm” and the Ex result is listed as “Ex = 550 nm”.

B13: Spinach-4: derivative of Spinach (nucleic acid)
chain: GACGCGACCGAAUGAAAUGGUGAAGGACGGGUCCAGCUGCGGCUGCUUCGGCAGCCGCAGCUUGUUGAGUAGAGUGUGAGCUCCGUAACUGGUCGCGUC
modifications: listed as RNA, chemistry not given here
On to B13, for which the “relative fluorescence” value in series [2] was “enhanced fluorescence”.

B14: SEQ ID NO: 52: RNA aptamer listed for fluorophore DFHO (nucleic acid)
chain: GGGCGACUCACUAUAGGGAGACGCAACUGAAUGAAGCGAAGAAGGAGGUCUGAGGAGGUCACUGCUUCGGCAGUGGGGCGUUUUCCCUGGGGGUGUUGAUCCGUAACUAGUCGCGUCAC
modifications: listed as RNA, chemistry not given here
As for B14, in series [3], the Em result is listed as “Em = 540 nm” and the Ex result is recorded as “Ex = 490 nm”.
